Assay: soluble fraction after stress (log2 fold change); higher = more stays soluble; pooled small domains, quantitative proteomics
Settings: stress: 50 degC
Method in brief: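 Pooled custom libraries of small protein domains were each held under stress at 50°C. The read-out, high-throughput quantitative proteomics, tracked how much of each protein stayed soluble. This is reported as a base-two log fold change used to indicate aggregation propensity. Higher values mean more protein remains in solution.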

| Sequence | soluble fraction (log2) |
| --- | --- |
| HMMNNKEIGTRIAVLRKGMGDSQAKLAERLDVSPQAVSKWETGQSLPDIGNLLKLSWLFRTSINHILEGS | -1.37 |
| HMSQSMEVLYTDLTDKDAAAIVEKLEEEKIPYQLEDQGTTILVPPGVKYTTRLKLAAEDLPKG | 0.000352 |
| HMIDRADLWEALRKLPEDTLKLFSLHFEKGMTHDEISKHTDIPVGTVKTKLRRGLIEARKLAREF | -0.795 |
| HMNAVYAEERRAYILAALEKRGTVHSYELAEQMGVSRETIRRDIMELSNRGLLVKTHGGAIST | -0.686 |
| HMGSTATVIASRLNMRASASTTGALLTKIPNGATVTVLGTTGAWSHIRYGSYTGYVMSQYLRING | -0.203 |
| HMSKEDDSLVVTFRRMLLEEVDLHELSRIDANQRRARLERVIAHLVSREGVILSASERNQLVRRVVDEAV | -0.529 |
| HMPKHDWDAFAGAIARRVHDHGMPVSQGELVRDMMDWFAGRKDFPPPDERTVRRKVSAIWRELNG | -1.02 |
| HMHKIRRQTKITKSLLDQIEGIGSSRKKALLNHFGSAKAVGEAGETDLGTVKGISNSLAKKIYDFFHAT | -0.281 |
| HMETEAGIKAYLSSSMIKGIGPVTAQRIVERFGKRTLYVLDQMPEKLLDISGISEAKLEEILNGYRKS | -0.24 |
| HMDEWDPAILYVGLDYEDAAQIATRLATSGVPYRLSPDGTMITVPDDQVNNMRLTLAGEGFPH | -0.0702 |
| HMQKLLGPFEDFVKIKLDKYPDTKAAQMHDWLKEHYPDFPEVTPKTVYNFVMYVRQRHNIPIPD | -0.0276 |
| HMIEYYDDEELDVFKGRQSDNYTNKEIEQFAEVLHTMRQDEVKGWNRSLILRSINLPDSLKDEVIMLI | -0.672 |
| HMAIEMSTITKRVTSTGEIRYRALLQIRREDVNYTESRTFSKKSLAEAWLKKREVELEANPELLHQ | -1.32 |
| HMIALLRLGTAPDIKAQAPLATILARHNGEMSAKDLWQRFGGEIDTFYAQLKTEVAHGWILEPT | -0.617 |
| HMDVMNEIQQKAFDIYIQSASLKNDFTPISERALAKKLHDMGLKSSMSAIGRWKKKFGWVQSLQNKVTLA | -0.128 |
| HMSLQDYYQVLGVFYNAGDKEIKRRWKELINQYHPDLAQAKGASPEEIENYTLKMAEINNAYEQIMKSRKA | 0.0274 |
| HMQAVDPLELRAGDFVVHEQHGIGRYVEMVQRTIGGITREYLVIEYAPAKRGQPNDRVFVPTDTLEQVS | -0.514 |
| HMSPFYALDEVDSFLDGVNVERLAALIARQAEQAQFLVVSHRRPMIGASTRTIGVTQARGAHTQVVGLP | -0.25 |
| HMEQINVTIQTEKGRIDKVLSEHLPNHSRSQIQQWLKEKHVTVNGETVRANYKVTAGDEIVVTIPEPEV | 0.206 |
| HMNATPDMERYWASSAAEGRALEPLYAVSRGDGGEPLWWSPSRAQAERMAREEGGPLTVDRIDPP | -0.0411 |
| HMGSLKEKIVLLEKLYQQNPSEEIKLLLINTYQLNHQYIQARKLFFTLTPEQKEKLPLASEFLIFL | -0.871 |
| HMNFKNMIDSLSGILFKKDPSAAIIDIGGVRLKVFITVGSYEQLPAKGEQVEILTYLHVKEDILNLYG | -0.242 |
| HMESNDSNIEDDFYEGLKSMRKGDLKMSVVFFTRVIEKKPTFAEAWNRRATVYYMLGKFDKSMFDINETLK | -0.115 |
| HMTVGEAHLEEVYLKVLKQVEEQGTALIRTTDVETGRPAAGIRRRYMRGTLPDEWVAKFEALPGWTWAPG | -0.879 |
| HMDNIKRGEMFYISRGGASYSGSEQHSDRPAVVVSNDKNNENSNVVEVVYMTTQPKTDLPTHVTVR | 0.0894 |

| Sequence | soluble fraction (log2) |
| --- | --- |
| HMSALAQDGDLVQLQGAGYKSHILRLKAGEVLQTHRGVIQHDAVIGQPWGARLQSHTGSPFYLFQPGLADL | -0.522 |
| HMELGRQDSAQLGRWAAGILAKNGKKITGRTMEFFLSRTGDDMENISSELEKLISYTLGREVITEEDIEAV | -0.351 |
| HMDEEDVLNELIRRLALTADDRLLLSLSYEDGLSSRKIATLLETSAATVQRRLAGLHHQLEQALRVMGLA | -0.454 |
| HMKKPAERRKELVDAAAHLFAEKGYENTSVRDILDAVGGAPGMFYYYFKSKQDIYVAVMEDF | -3.54 |
| HMESRETGLPVVIISDGRILQDNLKRRGLDLSWLDKQLAEHGYPDFRDVFLLTVDEAGGVYFVPRE | 0.333 |
| HMKEVKRDQVIEAARKLFHQFGFKKVSMDEIAKEAGVTKKTIYMYFESKEELLKYFIQEEISN | -0.224 |
| HMHSQVFTDPDKAKNAVVKLGAPLVVKADGLALGKGVIIAQNPQAAKEAVASVGSSGISSISVT | 0.0607 |
| HMVRSKLEIVPVPEDAVVKIAGLKRLTYQAYQNEDVPYMVYKNGYEAQSGTVFMDTDKTLTVTLEESP | -0.0311 |
| HMDAEVEHLFRIIAELKEKNVAIIYISHKMDEIFRISDDITVYRDGEYIATDRAENLNVDKVIQLMVGREV | -0.339 |
| HMGIVAGGTQSIATLRAIDTTDAQLYPDKILINVEDAGLYRLDRQSTATDDGNQVIKPTVGVGRWLKMTS | -0.11 |
| HMSSNLTVFTRNNAIIVNSDVVRKLNVFAVDGRLVRSVDLSVGENVINNISRGMYLIDKQKVVV | -0.353 |
| HMGDITIPDLQGMSFDQAREKLKALGLSIGKISYTSDTSKDDGVVISQGLQAGGKASKGATVDITINET | 0.0588 |
| HMEPEDVIAMERYLASGAIKGIGVTLAGRIIKKFQKETFHIIEEEPERLSEVKGISEKLAREIYQQFTQK | -0.873 |
| HMNVKVSVDDIARPGLMASGRVTFADGNRGMWYVDEMGRLGIDPEVEGYQPSEADIQAFQRELQSVMES | 0.102 |
| HMNMVSGHLQVKKGYYYAVLSFYDSKNKRHVKYISTGLPEKGNKRKAEAELVKIRNAFEPPAE | -0.338 |
| HMIYYTEEELVKRYIDFSNYLGKKEGASDVDFKKYAVEFGIPSRDHYNRKFITLFNLKIKAGYKPIRH | -0.763 |
| HMDDGALQIRLGPQALQQRLDKLGYSLNKEDLDLVYQYFLHSADSKGAVYDQELRELMGEAGVE | -0.0408 |
| HMGIAEGSSVFVRVLAAEDGGRYTVSFAGRRFSVLSRQALGIGSAFRADVKVEKGQVLLVPR | -2.37 |
| HMDPVATLTPREREVLELMAEGRTNAGIAEAMVVTEGAVEKHIQRIFAKLGLHADGGVHRRVAAVLALLG | -1.01 |
| HMVDETDVPTFTDMTLEEAQNEAKQRNLKLEITESPSDKEKDTILEQDPEPGKTVASGSTVKLTVSNGEE | -0.14 |
| HMESKPLTPSEIKKLRMDANMTQAGLAEVLGMTVKAVEAWESGRNIPSGAADKILRVMQKHPSVIGMMQS | 0.156 |
| HMGVEKHLRITGTSTVSWKDAIVQAVAEASKTIDYLSNVKIIEQRARIDGKKLVEYFVDLDLSFVID | -0.0917 |
| HMNVDSLIGKKARVLEDIDNLNAKGQVSIDGMEWTARSEDGSEIKKDALVEVVAIEGVKAIVKQ | 0.0709 |
| HMTVKKEIAKVKPTPLGWLRVRETPSLNGAEITKVNTGESYDVLDKETGWIKIKVSETVEGWVSDAYIELS | 0.236 |
| HMRGWGTVKRRTPKSGRYRASYIGPDGKRYAADHTYAAKVDADAWLSSERALITAGVWTPPTDRVT | -0.286 |

| Sequence | soluble fraction (log2) |
| --- | --- |
| HMQIYSQEIYDAQKVLKELGLYTSDLDGLNGPGTKRALRNFQSKSGLNADGVLGPLTKSALDKGEESYITV | 0.0375 |
| HMATAPQIRAIYALGSKLGINQNSREDNLHQLVYSITGKESIKGLTNYEAARVQSELANMERK | 0.22 |
| HMLEDIDNSIKKEIILEHYDKMLEFHGDYGAIIFRKLLHAYSKGYTGANEFRDLVNQISDKNIMRDLIESF | -1.19 |
| HMDPHEEELLRQLIRGDIAGYEVLFHKYYPTFFAFIKGMTKETVVAEDITQNIFMKVWLNRERLDAA | -0.0635 |
| HMGQAEEVRYSTFLDEVRNGRIEQVVLQGEHIIGTRKDKTVFSVFNPETDYTALIGTLSKSGVTIEGRP | 0.081 |
| HMAVPAALVQAWLELSRRMVAGTQDVGERFAEEARKMHYGETEDRGIRGQATLTEVRDLLDEGIEVLPLLL | -0.392 |
| HMPRNEIQRSVLNELVQWIKNNLAKKLTMQALSRFSGYSEWHLFRLFRHYFNMSPMAYIRQQRMQ | -0.265 |
| HMQLVPGIGRLSARELEVFTLIGRGLGTSEIGKKLGVSAYTVQTHRNHIKEKLNLPNAAAITYWAIQWAHG | -2.14 |
| HMKTYSEAQLKIALESLIENGKKQGYLTFQEINEILPDGIINTQDLKVIISILKETGIVVAKEKPEINIDV | 0.0784 |
| HMKEVVKVTITPSEKLKSQYPDALVSIDGKFYDLGILNNPVEFYMDKDHKISIIWSTAELVESFRI | -0.00922 |
| HMKYYIYQGLGDSGELTKIAEVTDVKTYTATGLEANTKYRFAVSAYNGLRESSKSNIITVTT | 0.0324 |
| HMKDRNISSSVLEILSKDPDHTYNYKQIAALLGVKDAFIRKRIVTLLAQLAKDGHLDEISRGKYQIK | -1.02 |
| HMGQVAKPPLKELGADPVTGKPMVLKDGRFGPYVTDGEYNASLRKDDDIETIGVERAAELLQIRREKGP | -0.081 |
| HMSRKERERSQHRRDILAAGEKIFAQKGYFNATIEEIAREAEFSVGTIYNFFSNKETLYQEIIRSI | -0.298 |
| HMKKVTMQDIANILNISRVTVWKVLNNQPGVSKQLRDQILLTAKETGYLKPGQEAEAYLEENNIYFEG | 0.176 |
| HMNDVEAIDDALKDLHKVSPDLAALVEMKFFGGMTEPEISEILGVSERTVRREWEKARAALLVLLE | -1.41 |
| HMKGISRVTMELIIDALKKETEPRTVQWIAEKTGLATQTTYRYLQYMVSEQTVEALNVYGKVVSLKAK | -0.314 |
| HMEDETAKVLRLLAENNGYLPYNDKSDPTDIYAFFGMSKKAFKMTTGNLYKQKKIQFTQTGIQLIE | -0.347 |
| HMLAPLAEMRGDTLDRLEKAVLELFSSRDFHEVSLQDVARRANVSLQTIYKYFGSKEALVYTMLDTLLGR | -0.661 |
| HMLTGESDNVEKSINKLGTENLALADQTNMGFKGTFINSGHGMAIVVKTGMQTELGKIASMIQIA | 0.21 |
| HMSVKYLQIYHAIREKILSNEYAINQQLPDEITLTKEFNSSRMTVKKALDLLVSEGLIFRKRGQGTFVLSR | -2.27 |
| HMRMSRSARLFDLLHILRSHRRAVSGQALAQQLGISIRTLYRDIASLQAQGAKIEGEPGVGYMLKP | -0.947 |
| HMTYSSESVRYRIKSLIDNETIDEILSDDKIVNILKSQGIDVARRTVAKYREAMGLASSIQRRREKKSA | -0.375 |
| HMTHPAHLARIGALIRSARQHEGLTQAQLAELLGTSQSAIHRIEQGGQNITLDMLTRISAALDSEIVTIG | -0.921 |
| HMHMKTIEWDSLVLIMYKDMKYLKRINEGQSFHGKGGMLNYADLIGKTYGIRFGQYEIFEPSLEDIVMYG | -0.126 |
